Measured values as given in US20220017615A1 (SHANGHAI PHARMAEXPLORER, published 2022).

What was measured:
[1] = molecular target: T1, human CD47, full length, on transfected cells (human, UniProt Q08722 19-323); test: FACS CHOK1-hCD47; Ab 8 nM
T1 construct: whole, on cells; also called CHOK1-hCD47
Protocol: (§1) The CHOK1-hCD47 stable cell lines and CHOK1-cCD47 stable cell lines were expanded to 90% confluence in a T-75 cell culture flask, the medium was exhausted, washed twice with HBSS buffer (Hanks balanced salt solution) (purchased from Invitrogen), and then treated and collected with enzyme-free cell dissociation solution (Versene solution: purchased from Life technology). The cells were washed twice with HBSS buffer. After counted, the cells were diluted with HBSS to 2×10⁶ cells per ml, added with 1% goat serum blocking solution, wherein the percentage was the mass percantage, incubated on ice for 30 minutes, and then washed twice with HBSS by centrifugation. […] The plate was washed 3 times with FACS buffer by centrifugation, added with 100 μl fixative solution [4% (v/v) Paraformaldehyde] per well to suspend the cells. 10 minutes later, it was washed twice with FACS buffer by centrifugation. The cells were suspended with 100 microliters of FACS buffer, FACS (FACS Calibur, purchased from BD) was used for detection and the results were analyzed.

[2] = molecular target: T2, cynomolgus CD47, on CHOK1-cCD47 stable cell line (cynomolgus); test: FACS CHOK1-cCD47; Ab 8 nM
T2 construct: whole, on cells; check before use; also called CHOK1/cynoCD47; monkey-derived CD47
Protocol: as §1

[3] = molecular target: T1, human CD47, full length, on transfected …; test: FACS CHOK1-hCD47; Ab 40 nM
Protocol: as §1

[4] = molecular target: T2, cynomolgus CD47, on CHOK1-cCD47 stable …; test: FACS CHOK1-cCD47; Ab 40 nM
Protocol: as §1

[5] = molecular target: T1, human CD47, full length, on transfected …; test: FACS CHOK1-hCD47; Ab 1.6 nM
Protocol: as §1

[6] = molecular target: T1, human CD47, full length, on transfected …; test: FACS CHOK1-hCD47; Ab 200 nM
Protocol: as §1

[7] = molecular target: T2, cynomolgus CD47, on CHOK1-cCD47 stable …; test: FACS CHOK1-cCD47; Ab 1.6 nM
Protocol: as §1

[8] = molecular target: T2, cynomolgus CD47, on CHOK1-cCD47 stable …; test: FACS CHOK1-cCD47; Ab 200 nM
Protocol: as §1

[9] = molecular target: T1, human CD47, full length, on transfected …; test: FACS CHOK1-hCD47; Ab 0.32 nM
Protocol: as §1

[10] = molecular target: T2, cynomolgus CD47, on CHOK1-cCD47 stable …; test: FACS CHOK1-cCD47; Ab 0.32 nM
Protocol: as §1

[11] = molecular target: T1, human CD47, full length, on transfected …; test: FACS CHOK1-hCD47; Ab 0.064 nM
Protocol: as §1

[12] = molecular target: T2, cynomolgus CD47, on CHOK1-cCD47 stable …; test: FACS CHOK1-cCD47; Ab 0.064 nM
Protocol: as §1

[13] = molecular target: T1, human CD47, full length, on transfected …; test: FACS CHOK1-hCD47; Ab 0.0128 nM
Protocol: as §1

[14] = molecular target: T2, cynomolgus CD47, on CHOK1-cCD47 stable …; test: FACS CHOK1-cCD47; Ab 0.0128 nM
Protocol: as §1

[15] = molecular target: T3, His-tagged CD47 recombinant protein, CD47-His (human, UniProt Q08722 19-141, limits assumed); test: ELISA on coated CD47-His; Ab 0.004 nM
T3 construct: it is not restated for CD47-His; also called human CD47-His protein; antigen CD47-His; not shown: His tag

[16] = molecular target: T3, His-tagged CD47 recombinant protein, …; test: ELISA on coated CD47-His; Ab 0.021 nM
Protocol: (§2) The plate was sealed with plastic film and incubated at 4° C. overnight. The plate was washed twice with plate washing solution [PBS+0.01% (v/v) Tween20] the next day, and blocking solution [PBS+0.01% (v/v) Tween20 +1% (w/w) BSA] was added to block it at room temperature for 2 hours. […] After incubation at 37° C. for 2 hours, the plates were washed three times with plate washing solution [PBS+0.01% (v/v) Tween 20]. HRP (horseradish peroxidase) labeled secondary antibody (purchased from Sigma) was added, incubated at 37° C. for 2 hours, and then washed three times with plate washing solution [PBS+0.01% (v/v) Tween 20]. 1000 of TMB substrate was added to each well. After incubated at room temperature for 30 minutes, the plate was added with 100 μl of stop solution (1.0N HCl) to each well.

[17] = molecular target: T3, His-tagged CD47 recombinant protein, …; test: ELISA on coated CD47-His; Ab 0.107 nM
Protocol: as §2

[18] = molecular target: T3, His-tagged CD47 recombinant protein, …; test: ELISA on coated CD47-His; Ab 0.533 nM
Protocol: as §2

[19] = molecular target: T3, His-tagged CD47 recombinant protein, …; test: ELISA on coated CD47-His; Ab 2.667 nM
Protocol: as §2

[20] = molecular target: T3, His-tagged CD47 recombinant protein, …; test: ELISA on coated CD47-His; Ab 13.333 nM
Protocol: as §2

[21] = molecular target: T3, His-tagged CD47 recombinant protein, …; test: ELISA on coated CD47-His; Ab 66.667 nM
Protocol: as §2

[22] = molecular target: T1, human CD47, full length, on transfected …; test: FACS CHOK1-hCD47; Ab 0 nM (background)
Protocol: as §1

[23] = molecular target: T2, cynomolgus CD47, on CHOK1-cCD47 stable …; test: FACS CHOK1-cCD47; Ab 0 nM (background)
Protocol: as §1

[24] = molecular target: T3, His-tagged CD47 recombinant protein, …; test: ELISA on coated CD47-His; Ab 0 nM (background)
Protocol: as §2

[25] = molecular target: T4, biotin-labeled CD47 extracellular domain protein (CD47-ECD) (UniProt Q08722 19-139, limits assumed, biotin-labeled (sites not given)); test: blocking ELISA, biotin-CD47-ECD on coated SIRPα-hFc; Ab 0 nM
T4 construct: extracellular domain; also called CD47 protein

[26] = molecular target: T4, biotin-labeled CD47 extracellular …; test: blocking ELISA, biotin-CD47-ECD on coated SIRPα-hFc; Ab 8 nM
Protocol: (§3) The plate was sealed with plastic film and incubated at 4° C. overnight. The plate was washed twice with plate washing solution [PBS+0.01% (v/v) Tween20] on the next day, and blocking solution [PBS+0.01% (v/v) Tween20 +1% (w/w) BSA] was added to block it at room temperature for 2 hours. […] After incubation at 37° C. for 2 hours, the plate was washed three times with the plate washing solution [PBS+0.01% (v/v) Tween 20]. HRP (horseradish peroxidase) labeled avidin diluent (purchased from Sigma) was added as 100 microliters per well, and after the plate was incubated for 2 hours at 37° C., it was washed 3 times with washing solution [PBS+0.01% (v/v) Tween 20]. 100 μl of TMB substrate was added to each well. After incubated at room temperature for 30 minutes, the plate was added with 100 μl of stop solution (1.0N HCl) to each well.

[27] = molecular target: T4, biotin-labeled CD47 extracellular …; test: blocking ELISA, biotin-CD47-ECD on coated SIRPα-hFc; Ab 40 nM
Protocol: as §3

[28] = molecular target: T4, biotin-labeled CD47 extracellular …; test: blocking ELISA, biotin-CD47-ECD on coated SIRPα-hFc; Ab 1.6 nM
Protocol: as §3

[29] = molecular target: T4, biotin-labeled CD47 extracellular …; test: blocking ELISA, biotin-CD47-ECD on coated SIRPα-hFc; Ab 200 nM
Protocol: as §3

[30] = molecular target: T4, biotin-labeled CD47 extracellular …; test: blocking ELISA, biotin-CD47-ECD on coated SIRPα-hFc; Ab 0.32 nM
Protocol: as §3

[31] = molecular target: T4, biotin-labeled CD47 extracellular …; test: blocking ELISA, biotin-CD47-ECD on coated SIRPα-hFc; Ab 0.064 nM
Protocol: as §3

[32] = molecular target: T4, biotin-labeled CD47 extracellular …; test: blocking ELISA, biotin-CD47-ECD on coated SIRPα-hFc; Ab 0.0128 nM
Protocol: as §3

Row | mean fluorescence intensity [1] | mean fluorescence intensity [2] | mean fluorescence intensity [3] | mean fluorescence intensity [4] | mean fluorescence intensity [5] | mean fluorescence intensity [6] | mean fluorescence intensity [7] | mean fluorescence intensity [8] | mean fluorescence intensity [9] | mean fluorescence intensity [10] | mean fluorescence intensity [11] | mean fluorescence intensity [12] | mean fluorescence intensity [13] | mean fluorescence intensity [14] | OD450 nm [15] | OD450 nm [16] | OD450 nm [17] | OD450 nm [18] | OD450 nm [19] | OD450 nm [20] | Binder | also measured
1 | 12700 | 10600 | 15900 | 13300 | 6460 | 14600 | 7190 | 9460 | 2000 | 2880 | 541 | 288 | 174 | 245 | 0.16 | 0.53 | 1.83 | 2.95 | 3 | 2.97 | 51E2F11 (antibody, V domains shown, Murine hybridoma antibody purified on protein G) VH: EVQLQQSGAELVKPGASVKLSCTASGFNIKDHYIHWMNQRTEQGLEWIGRIDPDDGETRYAPKFRGKATLTADTSSNTAYLQFSSLTSEDTAVYHCTRATTITRDWYFDVWGTGTTVTVSS VL: DIVMTQSQKFMSTSVGDRVSITCKASQNVRTSVAWYQQKPGQSPKALIYLASNRHTGIPDRFTGSGSGTDFTLTIRNVQSEDLADYFCLQHWDYPLTFGAGTKLELK | OD450 nm [21]: 2.95; mean fluorescence intensity [22]: 22.6; mean fluorescence intensity [23]: 72.4; OD450 nm [24]: 0.05; OD450 nm of CD47 bound to SIRPα [25]: 2.95; OD450 nm of CD47 bound to SIRPα [26]: 0.1; OD450 nm of CD47 bound to SIRPα [27]: 0.08; OD450 nm of CD47 bound to SIRPα [28]: 0.32; OD450 nm of CD47 bound to SIRPα [29]: 0.07; OD450 nm of CD47 bound to SIRPα [30]: 1.57; OD450 nm of CD47 bound to SIRPα [31]: 2.77; OD450 nm of CD47 bound to SIRPα [32]: 2.94
2 | 13500 | 21300 | 17700 | 21200 | 6180 | 16700 | 9570 | 17200 | 1940 | 3250 | 561 | 908 | 216 | 278 | 0.18 | 0.62 | 2.1 | 2.99 | 3 | 2.94 | 54G8G6 (antibody, V domains shown, Murine hybridoma antibody purified on protein G) VH: QVQLQQPGADLVKPGASVKMSCKASGYTFTSYWIIWVKQRPGQGLEWIGDINPGRGSPNYNEKFKRKATLTVDTSSSTAYMQLSSLTSEDSAVYYCVRGGLRRFDHWGQGTLVTVSA VL: ENVLTQSPAIMSASPGEKVTMTCRASSSVSSSYLHWYQQKSGASPKLWIYSTSTLASGVPARFSGSGSGTSYSLTISSVEAEDAATYYCQQYSGYPYTFGGGTKLEIK | OD450 nm [21]: 2.86; mean fluorescence intensity [22]: 23.1; mean fluorescence intensity [23]: 76.8; OD450 nm [24]: 0.05; OD450 nm of CD47 bound to SIRPα [25]: 2.9; OD450 nm of CD47 bound to SIRPα [26]: 0.09; OD450 nm of CD47 bound to SIRPα [27]: 0.06; OD450 nm of CD47 bound to SIRPα [28]: 0.13; OD450 nm of CD47 bound to SIRPα [29]: 0.07; OD450 nm of CD47 bound to SIRPα [30]: 0.31; OD450 nm of CD47 bound to SIRPα [31]: 1.76; OD450 nm of CD47 bound to SIRPα [32]: 2.89
3 | 12300 | 21400 | 17300 | 17500 | 6140 | 15800 | 7990 | 21200 | 2490 | 3040 | 408 | 734 | 221 | 223 | 0.17 | 0.58 | 2.07 | 2.96 | 3.01 | 2.98 | 95E2D10 (antibody, V domains shown, Murine hybridoma antibody purified on protein G) VH: QIQLQQSGPELVKPGASMKISCKASGYPFTDYYIHWVKQKPGQGLEWIGWIYPGSGNNKYNEKFKGKATLTVDTSPSTVYMQLSSLTSEDTAVYFCARRAGNYFDYWGQGTTLTVSS VL: NIVMTQSPKSMSRSVGERVTLSCRASENVRTYVFWYQQKPGLSPKLLIYGASNRYIGVPDRFTGSGSATDFTLTISSVQAEDLADYHCGQSYSYPLTFGAGTKLELK | OD450 nm [21]: 2.93; mean fluorescence intensity [22]: 23.3; mean fluorescence intensity [23]: 76; OD450 nm [24]: 0.05; OD450 nm of CD47 bound to SIRPα [25]: 2.94; OD450 nm of CD47 bound to SIRPα [26]: 0.09; OD450 nm of CD47 bound to SIRPα [27]: 0.06; OD450 nm of CD47 bound to SIRPα [28]: 0.52; OD450 nm of CD47 bound to SIRPα [29]: 0.06; OD450 nm of CD47 bound to SIRPα [30]: 2; OD450 nm of CD47 bound to SIRPα [31]: 2.84; OD450 nm of CD47 bound to SIRPα [32]: 2.96
